Data: doi:10.1101/2023.05.22.541649
Blank lines part the entries; values can stand above or below the substance they belong to.

Tests used:
[1] = target: GFP-CENP-T^1–242–I3-01 (human) (UniProt Q96BT3); test: affinity purification with mass spectrometry
[2] = target: GFP-CENP-T^1–242^/3D-I3-01 (human) (UniProt Q96BT3); test: fluorescence intensity of single particles
[3] = target: GFP-CENP-T^1–242–I3-01 (human) (UniProt Q96BT3); test: fluorescence intensity of single particles
GFP-I3-01 (recombinant) = test: fluorescence intensity of single particles
GFP-I3-01 = test: fluorescence intensity of single particles
[4] = target: GFP-CENP-T^1–242^/3D-I3-01 (human) (UniProt Q96BT3); test: single-molecule TIRF binding assay; conditions: scale: NDC80^Bonsai molecules per GFP-CENP-T^1–242^/3D molecule
[5] = target: GFP-CENP-T^1–242^/3D (human) (UniProt Q96BT3); test: single-molecule TIRF binding assay; conditions: scale: NDC80^Bonsai complexes per GFP-CENP-T^1–242^/3D molecule

Substance: GFP-I3-01 (recombinant)
stoichiometry N (GFP molecules per oligomer) (GFP-I3-01 (recombinant)): 44

Substance: GFP-I3-01
stoichiometry N (GFP molecules per oligomer) (GFP-I3-01): 51

Substance: KNL1 complex (from UniProt Q8NG31 1-2342)
fold more per CENP-T molecule than with monomeric GFP-CENP-T^1–242 [1]: 2.7 fold

Substance: GFP-tagged NDC80^Bonsai complex
stoichiometry N [4]: 2.2
stoichiometry N [5]: 0.28

The remaining lines, values ahead:

fold more per CENP-T molecule than with monomeric GFP-CENP-T^1–242 [1]: 5.4 fold
Substance: MIS12 complex (from UniProt Q9H081 1-205)

stoichiometry N (molecules per complex) [2]: 66
Substance: GFP-CENP-T^1–242^/3D-I3-01 (from UniProt Q96BT3 1-242)

stoichiometry N (GFP molecules per oligomer) [3]: 41
Substance: GFP-CENP-T^1–242–I3-01 (from UniProt Q96BT3 1-242)

fold more per CENP-T molecule than with monomeric GFP-CENP-T^1–242 [1]: 5.6 fold
Substance: NDC80 complex (from UniProt O14777 1-642; Q8NBT2 1-197; Q9HBM1 1-224)
